Reference: the supplement of paper PMC9170038

What was measured:
MS2 coat protein = experiment: apparent KD of MS2 coat protein; higher = weaker reporter binding; details: Eterna round: R107
Method: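 RNA-MaP round R107: designed RNA switches with theophylline, tryptophan, arginine or FMN aptamers are transcribed on-chip within common flanks. They are titrated with SNAP-549-labelled MS2 coat protein in RNA-MaP buffer (100 mM Tris pH 7.5, 80 mM KCl, 4 mM MgCl2), without ligand or with the indicated ligand. Median apparent KD per design.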

[1] = system: K4 kissing-loop RNA reporter; experiment: apparent KD of K4 kissing-loop reporter; higher = weaker reporter binding; details: Eterna round: R107;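 also: bound reporter read as fluorescence of individual clusters on recovered sequencing chips by microscopy, with normalized cluster intensities fitted with a binding model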
Method: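 RNA-MaP round R107: designed RNA switches with theophylline, tryptophan, arginine or FMN aptamers are transcribed on-chip within common flanks. They are titrated with a labelled K4 kissing-loop RNA reporter in RNA-MaP buffer (100 mM Tris pH 7.5, 80 mM KCl, 4 mM MgCl2), without ligand or with the indicated ligand. Median apparent KD per design.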

[2] = input ligand: theophylline 20 uM
[3] = input ligand: theophylline 2 mM
[4] = input ligand: tryptophan 2.4 mM

Sequence | apparent KD of MS2 coat protein (MS2 coat protein; input ligand: arginine 13.2 mM) | apparent KD of MS2 coat protein (MS2 coat protein; [2]) | apparent KD of MS2 coat protein (MS2 coat protein; [3]) | apparent KD of MS2 coat protein (MS2 coat protein; [4]) | apparent KD of MS2 coat protein (MS2 coat protein; input ligand: none) | apparent KD of K4 kissing-loop reporter ([1]; input ligand: FMN 200 uM) | apparent KD of K4 kissing-loop reporter ([1]; input ligand: arginine 13.2 mM) | apparent KD of K4 kissing-loop reporter ([1]; input ligand: none) | apparent KD of K4 kissing-loop reporter [1, 2] | apparent KD of K4 kissing-loop reporter [1, 4]
AAAACAUGAGGAUCACCCAUGUACAUGGGUCGAGGACCGGUACGGCCGCCACUCGCCGCCCGCCCGCCCGCCACCUCUCCCGCCC | 34.7 nM | 173 nM | 160 nM | – | – | – | – | – | – | –
AAAACGCAACUCGAUACCAGUACACUGAGUCUUCGCCACGACAUGAGGAUCACCCAUGUGUACCCUUGGCAGCGACAGAGCCACA [theeternabot_exclusion_MS2_Theo_B_42] | 43.4 nM | 84.9 nM | – | 57.7 nM | – | – | – | – | – | –
AAAAUCCUACCUGAGGAUCACCCAGGUGAAGGAGCGCCCGAAAGGGCAGGUAGGUCGCACCUGAGGAUCACCCUGGUAACCUAAA [ArgEX 11 #DoubleMS2 #OpenEnded #AlternativeMS2] | 28.1 nM | 69 nM | 51.7 nM | 38.6 nM | 48 nM | – | – | – | – | –
AAAAUCCUACCUGAGGAUCACCCUGGUGAAGGAGCGCCCGAAAGGGCAGGUAGGUCGCACCUGAGGAUCACCCAGGUAACCUAAA [ArgEX 13 #DoubleMS2 #OpenEnded #AlternativeMS2] | 31.7 nM | 40.7 nM | 44.1 nM | 47 nM | 49.2 nM | – | – | – | – | –
AAAAUCCUACCUGAGGAUCACCCUGGUGAAGGAGCGCCCGAAAGGGCAGGUAGGUCGCACCUGAGGAUCACCCUGGUAAACCUAA [ArgEX 24 #DoubleMS2 #OpenEnded] | 31.6 nM | 40.3 nM | 44.9 nM | 46.3 nM | 51.4 nM | – | – | – | – | –
AAACAUUGCUCAGAUACCAGACAUGAGGAUCACCCAUGUACCAAGGUACCCGAAAGGAAUGUCCCUUGGCAGCUGAGCAAUGAAA [MAT - Exclusion Theophlline B - Mod of Eli - D20] | 10.9 nM | 11.9 nM | – | 9.51 nM | – | – | – | – | – | –
AAACGCCACGGAAGGAGCGACAUGAGGAUCACCCAUGUAGACGUGGCGGAUGCACCCUCCUGUCAGGUAGGUCGCCGUGCGCCAA [Engebite] | 10.9 nM | 15.5 nM | 12.2 nM | 11.2 nM | 11 nM | – | – | – | – | –
AAACGCUAUGCGGCCGCCACUAAGGUUGGCGUCUAUGUCGUUUAAGACAUGAGGAUCACCCAUGUUAGGACCGGGCAUGUCCGCG [theeternabot_exclusion_MS2_Trp_B_25] | 19.1 nM | 22.9 nM | 22.4 nM | – | – | – | – | – | – | –
AAACUGGGUGUAAAAUAAAUAAUCACUGAUACCAGACUAUAGUAUGUCCCUUGGCAGCAGAAACAUGAGGAUCACCCAUGUAAUA [JR_Nu_ExcTheophyA_Sub024] | 22.3 nM | 23 nM | – | 25.2 nM | – | – | – | – | – | –
AAACUGGGUGUAAAAUAAAUAAUCACUGAUACCAGACUAUGAGAUGUCCCUUGGCAGCAGAAACAUGAGGAUCACCCAUGUAAUA [JR_Nu_ExcTheophyA_Sub026] | 19.6 nM | 24.5 nM | – | 25.2 nM | – | – | – | – | – | –
AAAGAUACCAGAGAUACCAGCCAAAAUUAAAAUAAAACCUCACAUGAGGAUCACCCAUGUGGCCCUUGGCAGCUCCCUUGGCAGC [#DoubbleAptamer 1] | 13.1 nM | 15.5 nM | – | 12.5 nM | – | – | – | – | – | –
AAAGGAAGGUAAAAUAAAACUACAUGUGAAGGAGCGCGCGAAAGCGCAGGUAGGUCGCACAUGAGGAUCACCCAUGUCCUUCCAA [MAT - Exclusion Arginine A - Mod of Eli - D4] | 112 nM | 181 nM | 129 nM | 96.8 nM | 104 nM | – | – | – | – | –
AAAGGUAGCAAUAAAUCUCCUACAUGUGAAGGAGCGCCCGAAAGGGCAGGUAGGUCGCACAUGAGGAUCACCCAUGUGAGCUACC [ArgEX 5 #SwitchBubble] | 18.9 nM | 20.9 nM | 21.2 nM | 15.3 nM | 15.2 nM | – | – | – | – | –
AAAGGUCGCAAUAAAUCUCCUACAUGUGAAGGAGCGCCCGAAAGGGCAGGUAGGUCGCACAUGAGGAUCACCCAUGUGAGCGACC [MAT - Exclusion Arginine A - Mod of Eli - D2] | 10.3 nM | 14.6 nM | 13 nM | 11.8 nM | 12.4 nM | – | – | – | – | –
AAAGGUCGGACGGCCGCCACUGGCUAGGUGGGUUCCGGGAUUACAUGAGGAUCACCCAUGUAUACCAGGACCGGGUUCGCCUCGU [Lageonor] | 9.51 nM | 12.2 nM | 8.28 nM | 17.8 nM | 11.9 nM | – | – | – | – | –
AAAUAAAACUGACAUACUGACCCAGUGGAAGGAGCGCACGAGGGUGCAGGUAGGUCGCCACAUGAGGAUCACCCAUGUCACGGAA [Esesinonla] | 56 nM | 135 nM | 131 nM | 86.7 nM | 91.9 nM | – | – | – | – | –
AAAUAAAUACAUGAGGAUCACCCAUGUGAAGGAGCGCGCGUUAGCGCAGGUAGGUCGCACAUGAAAGGGAAGCGAAAGAAAUAAU [MAT - Exclusion Arginine A - Mod of Eli - D16] | 24.9 nM | 28.6 nM | 24.3 nM | 22.2 nM | 19 nM | – | – | – | – | –
AAAUAAAUACAUGAGGAUCACCCAUGUGAAGGAGCGCGCGUUAGCGCAGGUAGGUCGCACAUGAACUCCAAAGUGCAAAAGCACA [MAT - Exclusion Arginine A - Mod of Eli - D8] | 19.7 nM | 25.1 nM | 20.5 nM | 24.7 nM | 22.8 nM | – | – | – | – | –

Sequence | apparent KD of MS2 coat protein (MS2 coat protein; input ligand: arginine 13.2 mM) | apparent KD of MS2 coat protein (MS2 coat protein; [2]) | apparent KD of MS2 coat protein (MS2 coat protein; [3]) | apparent KD of MS2 coat protein (MS2 coat protein; [4]) | apparent KD of MS2 coat protein (MS2 coat protein; input ligand: none) | apparent KD of K4 kissing-loop reporter ([1]; input ligand: FMN 200 uM) | apparent KD of K4 kissing-loop reporter ([1]; input ligand: arginine 13.2 mM) | apparent KD of K4 kissing-loop reporter ([1]; input ligand: none) | apparent KD of K4 kissing-loop reporter [1, 2] | apparent KD of K4 kissing-loop reporter [1, 4]
AAAUAGGUAGGAGAUACCAGAUAGGUUAACAUGAGGAUCACCCAUGUGUAUGCACUUAGUGUCCCUUGGCAGCUCCUGGAUCUGG [#19 Same State - Theophylline B] | 33.3 nM | 77.9 nM | 63.2 nM | 60.5 nM | 47.1 nM | – | – | – | – | –
AAAUAUUACGGAAGGAGCGUCUCAUAUAUGAAACAUGAGGAUCACCCAUGUGAUAAUGAACGACAGGUAGGUCGCCGAUAAUUGA [JR_AAArginiB_Sub029] | 16.1 nM | 22.7 nM | 16.8 nM | 15.1 nM | 16 nM | – | – | – | – | –
AACAACAAGGGAAGGAGCGCGAAUUAUAGACAUGAGGAUCACCCAUGUAACAUGGGAUUAACGCAGGUAGGUCGCCCACAAACAA [#08 Exclusion - Arginine B] | 80.5 nM | 237 nM | 177 nM | 117 nM | 162 nM | – | – | – | – | –
UUUCUACCGGGAAGGAGCGUGAAUGAUAAUGGAUAUAGUGAUGUUAUAUAUACGAACGAAUCGCAGGUAGGUCGCCCGGAUCCCU [SSArgB.V] | – | – | – | – | – | 492 nM | 594 nM | 593 nM | 549 nM | 496 nM
UUUCUUUUCUUUUGCGAUCCUAUCCCUUAUAAGGAUAUCUAGAAAUAGAGAAGGUAUGCAGUGAUGUUGCUUGGGAUAGGAUCGC | – | – | – | – | – | 311 nM | 275 nM | 301 nM | 277 nM | 241 nM
UUUGGCCACAGAGAUACCAGUCAUAUCGCUCUGGAGUGAUGUUCCGGAACAUGCGGAGAAGACCCUUGGCAGCUCAUGACGGUAA [Exclusion Theophylline B GF 2] | – | – | – | – | – | 232 nM | 194 nM | 196 nM | 201 nM | 254 nM
UUUGGUAGCGGUGUUGAUUAGGGAGCGGAAGGAGCGCCGAGGAGGGCAGGUAGGUCGCCGGAAUGUAGUGAUGUUGCAUAGAGGU [ExArgA.Ab] | – | – | – | – | – | 269 nM | 227 nM | 253 nM | 574 nM | 214 nM
UUUGUAUCGGGAAGGAGCGUGAAUGAUAAUGGAUAUAGUGAUGUUAUAUAUAAGAACGAAUCACAGGUAGGUCGCCCGGAUGACU [SSArgB.P] | – | – | – | – | – | 546 nM | 566 nM | 648 nM | 586 nM | 678 nM
UUUGUGAGUGAUGUUUGCAAUACGUUACCGAAGGAUAUUGUUGCGCCAAGAAGGUCGGAUGGAUCCAUGGGACAUGCCCUGGAGA [theeternabot_sameState_KL_FMN_A_45] | – | – | – | – | – | 617 nM | 384 nM | 509 nM | 450 nM | 474 nM
UUUUAAUAAGAGGAUACCAGUACAAAUAAAGUACAUUAAUAGUAGAGUGAUGUUCUAAAGUACCCUUGGCAGCUUAGAGUAAGUU [ExTheophylB.B] | – | – | – | – | – | 123 nM | 242 nM | 156 nM | 260 nM | 99.8 nM
UUUUAAUGCAGUGAUGUUGCAAAUAAAACAGAGGAUAUGCAUGGAAGCAGAAGGCUGAUAUGUCGUACUUCGACAUAUUAUAUUU [JR_SSFMNA_Sub012] | – | – | – | – | – | 89.2 nM | 125 nM | 91.4 nM | 121 nM | 81 nM
UUUUACGAUACGGCCGCCACUGGUGUUAUAUAUUUGCAGGAGUGAUGUUCGUGCGAUCAUUCCAUCAGGACCGGGUAUACGCGGC [theeternabot_sameState_KL_Trp_B_43] | – | – | – | – | – | 265 nM | 209 nM | 318 nM | 765 nM | 507 nM
UUUUAUUAAUACUUCUAGUGAUGUUAGAUACGAGGACCGGUACGGCCGCCACUCGCUUAUUGGUUUAUAUAUUUUUUAUUCUUUA [JR_SSTryptoA_Sub013] | – | – | – | – | – | 276 nM | 349 nM | 316 nM | 353 nM | 263 nM
UUUUGGCCAACGGCCGCCACUCACUAGUGAUGUUAGUUUGUGUUAUUCAUGAACCCGAUGUCGUCGAGGACCGGGUUGGGUUAUA [theeternabot_exclusion_KL_Trp_B_41] | – | – | – | – | – | 242 nM | 197 nM | 237 nM | 201 nM | 244 nM
UUUUUAAACUCGGCCGCCACUCAAAUGGGAGUGAUGUUCCCAAAAUAAUAAAUAAAUAAUAAUAAGAGGACCGGGAGAAAUUUUU [Same State - Trytophan B] | – | – | – | – | – | 94 nM | 98.2 nM | 106 nM | 94.8 nM | 81.3 nM
UUUUUAAUCGCAGAUACCAGUCCAGAAUAAAUACUAUAGUGAUGUUAUAAAUAAGGAAAGGACCCUUGGCAGCUGUACUAUAUUU [AstrosSsTheB#7] | – | – | – | – | – | 433 nM | 465 nM | 668 nM | 372 nM | 524 nM
UUUUUAUUCAGUGAUGUUGAAUUUAUAACAGAGGAUAUGCAUAAAAGCAGAAGGCUGAAAUACUAUACUUUAAUAAAUUAUAUUU [JR_SSFMNA_Sub016] | – | – | – | – | – | 214 nM | 274 nM | 261 nM | 326 nM | 192 nM
UUUUUUAAGAUGUCGACCAACCCGAAGCUACGAGGACCGGUACGGCCGCCACUCGCCAGUGAUGUUGGCGACUGGUGAAACCAUG [Ceesaror] | – | – | – | – | – | 133 nM | 97.8 nM | 110 nM | 103 nM | 227 nM
